B1: MLL5 (parent)
chain: DCMGIDRQHIPDTYLCERCQPRNL

Variants of: B1
Assay: protein stability index of a GFP-peptide fusion (GPS, HEK-293T) (PSI 1-6); higher = more stable
Settings: c terminus: a fixed tail appended
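Note: lentivirally expressed fusions sorted by FACS into six bins by GFP to DsRed ratio, PSI derived from sequencing read proportions per bin multiplied by bin number.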

Variant	protein stability index
T13V	3.34
T13D	3.54
T13P	3.33
T13L	2.04
T13K	3.24
T13N	2.91
T13C	2.17
T13Y	2.15
T13M	2.89
T13H	3.36
T13I	2.26
T13E	3.71
T13S	3.66
T13F	2.55
T13Q	3.07
T13R	3.63
T13W	2.7
T13A	3.59
T13G	3.31
D6V	2.4
D6N	2.4
D6W	1.62
D6P	2.61
D6Q	3.21

Variant	protein stability index
D6S	2.99
D6Y	2.47
D6L	2.31
D6T	2.02
D6M	1.88
D6R	2.74
H9A	2.63
H9T	3.11
H9F	2.04
H9R	2.64
H9K	3.58
H9D	2.56
H9W	2.23
H9Q	3.04
H9Y	2.01
H9S	2.98
H9E	2.86
H9C	3.29
H9G	2.77
H9N	2.65
H9I	2.24
H9L	2.93
H9M	2.16
H9P	2.12

Variant	protein stability index
H9V	2.63
Y14P	3.71
Y14N	3.15
Y14W	3.26
Y14L	2.56
Y14S	3.32
Y14K	3.11
Y14H	4.12
Y14E	4.21
Y14F	2.89
Y14T	3.73
Y14R	3.88
Y14A	3.85
Y14G	3.35
Y14M	3.5
Y14C	4.74
Y14D	3.83
Y14V	3.43
Y14I	3.21
Y14Q	3.7
P11T	3.08
P11G	2.96
P11N	4.19
P11W	1.7

Variant	protein stability index
P11A	2.6
P11R	3.15
P11E	3.43
P11H	3.71
P11Y	2.44
P11V	2.73
P11D	2.61
P11L	2.23
P11C	4.15
P11I	2.36
P11S	2.23
P11F	2.59
P11Q	2.69
P11K	2.62
P11M	2.82
Q8Y	2.65
Q8E	2.63
Q8S	3.25
Q8T	2.33
Q8K	2.44
Q8L	1.99
Q8F	1.98
Q8A	2.54
Q8I	2.56

Variant	protein stability index
Q8W	1.76
Q8V	2.1
Q8M	2.58
Q8H	2.89
Q8P	3.41
Q8R	2.5
Q8N	3.07
Q8D	2.27
Q8G	2.59
Q8C	2.73
L15C	3.71
L15A	3.61
L15D	3.69
L15E	4.66
L15F	2
D12K	1.96
D12C	2.67
D12S	2.38
D12P	3.19
D12G	2.63
D12M	3.1
D12R	2.86
D12Q	2.67
D12V	1.69

Variant	protein stability index
D12I	2.51
D12N	2.38
D12L	1.93
D12H	2.48
D12E	2.81
D12T	2.81
D12F	2.64
D12A	2.01
D12Y	2.1
R7F	2.78
R7M	2.55
R7C	4.09
R7N	2.9
R7K	2.29
R7V	2.39
R7G	3.69
R7S	3.44
R7T	3.02
R7Y	2.2
R7I	2.24
R7L	2.68
R7A	2.63
R7D	3.62
R7H	3.73

Variant	protein stability index
R7Q	3.06
R7P	2.94
R7W	2.4
R7E	3.58
I10E	3.72
I10W	2.37
I10S	3.14
I10C	3.62
I10G	3.13
I10K	3.04
I10D	3.56
I10L	3.02
I10F	2.54
I10M	3.9
I10A	2.92
I10V	2.45
I10N	3.3
I10Q	3.42
I10Y	3.49
I10R	3
I10H	3.49
I10T	2.48
I10P	2.97
